Experimental findings from publication PMC6828549 (Nature structural & molecular biology, 2019) are described below.

The assay deals with T1, His6-Nxf2 (full length), recombinant from insect cells (Drosophila melanogaster, UniProt Q9VV73 1-841).
T1 sequence: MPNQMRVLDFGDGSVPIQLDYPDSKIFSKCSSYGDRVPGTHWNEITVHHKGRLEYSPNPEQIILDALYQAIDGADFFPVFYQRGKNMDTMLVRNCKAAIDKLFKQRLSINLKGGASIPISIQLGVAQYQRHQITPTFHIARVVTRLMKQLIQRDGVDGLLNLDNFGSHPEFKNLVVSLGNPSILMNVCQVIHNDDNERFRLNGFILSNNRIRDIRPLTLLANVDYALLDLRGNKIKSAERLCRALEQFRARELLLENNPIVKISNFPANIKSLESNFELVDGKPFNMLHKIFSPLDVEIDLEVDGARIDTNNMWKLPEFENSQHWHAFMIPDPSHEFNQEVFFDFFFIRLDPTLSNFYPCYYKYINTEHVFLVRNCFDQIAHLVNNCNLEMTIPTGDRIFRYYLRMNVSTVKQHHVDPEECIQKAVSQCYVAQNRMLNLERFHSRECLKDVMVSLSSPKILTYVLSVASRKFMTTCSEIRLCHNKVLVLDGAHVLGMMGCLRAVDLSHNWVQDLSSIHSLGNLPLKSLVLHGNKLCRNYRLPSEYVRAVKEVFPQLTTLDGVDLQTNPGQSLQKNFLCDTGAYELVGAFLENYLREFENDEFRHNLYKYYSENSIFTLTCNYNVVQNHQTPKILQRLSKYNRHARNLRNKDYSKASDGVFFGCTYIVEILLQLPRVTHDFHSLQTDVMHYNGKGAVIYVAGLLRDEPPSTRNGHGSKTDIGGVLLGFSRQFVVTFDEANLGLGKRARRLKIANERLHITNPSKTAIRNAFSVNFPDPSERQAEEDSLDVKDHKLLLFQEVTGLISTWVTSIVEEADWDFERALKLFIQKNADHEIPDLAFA
Kind of assay: pull-down + SEC.

B1: Strep-tagged Panoramix fragment (263–446) (domain or fragment)
chain: ASSQNESSKERKLRDTELDYVPVRPDEHFIRPIKFSNLIERRPPQVEFNTVNLSKADKRSLAVARAELVLEQIQQKANKEEPPEFHMVDTICKLPVNESFRNQDCFENPSPICNNMNVVYKFNSTPGTRIDLSKWGLETVPEATKRLLRLLGIDVARLKELQSTVKPSQRILKLKKEQLEQGLA
Turning to B1, the binding result was “binds”.
